The labels stand for the following.
B1: humanized 2H7 variant v511 (antibody, human IgG1, kappa, V domains shown)
VH: EVQLVESGGGLVQPGGSLRLSCAASGYTFTSYNMHWVRQAPGKGLEWVGAIYPGNGATSYNQKFKGRFTISVDKSKNTLYLQMNSLRAEDTAVYYCARVVYYSYRYWYFDVWGQGTLVTVSS
VL: DIQMTQSPSSLSASVGDRVTITCRASSSVSYLHWYQQKPGKAPKPLIYAPSNLASGVPSRFSGSGSGTDFTLTISSLQPEDFATYYCQQWAFNPPTFGQGTKVEIKR
notes: also called 2H7.v511
B2: humanized anti-CD20 antibody 2H7.v16 (antibody, human IgG1, kappa)
heavy: not shown
light: DIQMTQSPSSLSASVGDRVTITCRASSSVSYMHWYQQKPGKAPKPLIYAPSNLASGVPSRFSGSGSGTDFTLTISSLQPEDFATYYCQQWSFNPPTFGQGTKVEIKRTVAAPSVFIFPPSDEQLKSGTASVVCLLNNFYPREAKVQWKVDNALQSGNSQESVTEQDSKDSTYSLSSTLTLSKADYEKHKVYACEVTHQGLSSPVTKSFNRGEC
notes: Human IgG1, expressed in 293 cells; also called humanized anti-CD20 IgG; humanized 2H7
B3: anti-idiotypic antibody 8A3 (antibody, V domains shown)
VH: QVQLQQSGAELAKPGASVKMSCKASGYNFTTYWMHWVKQRPGQGLEWIGYINPSTDYTEYNQKFKYKATLTADKSSSTAYIQLSSLTSEDSAVYYCARWWDYDWYFDVWGAGTPLTVSS
VL: DIVMTQSQEFMSTSVGDRVSVTCKASQTVDTNVAWYQQKLGQSPKPLIYSASYRCSGVPDRFTGSGSRTDFTLTITNVQSEDLAEYFCQQYHSFPWTFGGGTKVEIKR
notes: Murine monoclonal antibody raised against 2H7.v16; It was biotinylated when used as detection antibody and unlabeled when coated; also called MAb 8A3; 8A3-bio

The target of assay [1] is B3. The assay can be described thus: sandwich ELISA in mouse serum, 8C5 coat + 2H7 + 8A3-bio; the signal needs binding to both 8C5 and 8A3. In general terms: ELISA stands for enzyme-linked immunosorbent assay.
Assay [2] deals with B3. The assay can be described thus: ELISA, plate coated with 8A3, serially diluted antibody, detection with goat anti-human IgG Fc-HRP.
In assay [3] the target is B2. The assay can be described thus: ELISA, 8A3 coated on plate, anti-human IgG Fc-HRP detection.
Assay [4] deals with T1, humanized anti-CD20 antibody 2H7.v31.
T1 construct: The L chain is the same as for 2H7.v16
The assay is described as above.

Assay [5] deals with B1. The assay can be described thus: sandwich ELISA, 8C5 coat, biotinylated 8A3 detection, mouse serum.

In the case of B1, the binding result in assay [1] is listed as “binds”. Regarding B2, the binding result in assay [2] is on record as “binds”.

B3: the binding result in assay [3], in assay [4] and in assay [5] was “binds” in each case.

The values are drawn from patent US20070015228A1 (Genentech, published 2007).
